From the DeepSol protein solubility set

experiment: soluble on expression in E. coli; label from the status in PepcDB or PDB records

Sequence	soluble on expression in E. coli
GALGVVDEVHAGKEIGLQIYSLSQELYKGDVAANLRKVKDMGYSKLELAGYGKGAIGGVPMMDFKKMAEDAGLKIISSHVNPVDTSISDPFKAMIFKYSKEVTPKIMEYWKATAADHAKLGCKYLIQPMMPTITTHDEAKLVCDIFNQASDVIKAEGIATGFGYHNHNMEFNRVATKEQQEKVKGNPFAAFMKVGDQIYDLMLKDTDPSKVYFEMDVYWTVMGQNDPVEYMQKHPDRIKVLHIKDRAVFGQSGMMNFEMIFKQMYANGIKDYFVELEQMPDGRTQFAGVKDCADYLIKAPFVK	soluble
GAMAPHFKEELRNLNVRYQSNATLVCKVTGHPKPIVKWYRQGKEIIADGLKYRIQEFKGGYHQLIIASVTDDDATVYQVRATNQGGSVSGTASLEVEVPAKIHLPKTLEGMGAVHALRGEVVSIKIPFSGKPDPVITWQKGQDLIDNNGHYQVIVTRSFTSLVFPNGVERKDAGFYVVCAKNRFGIDQKTVELDVADVPDPPRGVKVSDVSRDSVNLTWTEPASDGGSKITNYIVEKCATTAERWLRVGQARETRYTVINLFGKTSYQFRVIAENKFGLSKPSEPSEPTITKEDKTRAMNYDEEV	soluble
GAMDPREVILCKDQDGKIGLRLKSIDNGIFVQLVQANSPASLVGLRFGDQVLQINGENCAGWSSDKAHKVLKQAFGEKITMTIRDRPFERTITMHKDSTGHVGFIFKNGKITSIVKDSSAARNGLLTEHNICEINGQNVIGLKDSQIADILSTSGTVVTITIMPAF	soluble
GAMESEEPVFSLEQNRDDAMAALASTPTFQQTFINSISTQAMDLCKKYNLYPSVMIAQAALESNWGRSELGKAPNYNLFGIKGSYNGKSVTMKTWEYSDSKGWYQINANFAKYPSHKESLEDNAKKLRNGPSWDSSYYKGAWRENAKTYKDATAWLQGRYATDNTYASKLNTLISSYNLTQYD	soluble
GAMQGEVSKAASADSTTEGTPADGFTVLSTKSLFLGQKLQVVQADIASIDSDAVVHPTNTDFYIGGEVGNTLEKKGGKEFVEAVLELRKKNGPLEVAGAAVSAGHGLPAKFVIHCNSPVWGADKCEELLEKTVKNCLALADDKKLKSIAFPSIGSGRNGFPKQTAAQLILKAISSYFVSTMSSSIKTVYFVLFDSESIGIYVQEMAKLDAN	soluble
GCSDGGREALVAAQRYPDDFNGIIAGAPALNFQVQKTLYHGWMARSNIGPDGKPILLASRLPLLHKAVLAKCDVLDGQIDGLIADPRLCNFDPASVQCTSSVDTTNCLTQQEVAVVKRFYEGPKDPDSGERLTVGGPQPGSELGWAGVFVPITAEQTVYSEKAASEAIRNMVFENNPVAGFDLSTLRFDKSTFDKLRPLHPLYDATNPDLAPFASRGGKLILWHGWADPNVSPLNTLAYHEAVEAKLGKARTEAFESLYMLPGVYHCGAGEGPSVIDLLTPMMAWVESNHAPD	not soluble
GDLVGPGCAEYAAANPTGPASVQGMSQDPVAVAASNNPELTTLTAALSGQLNPQVNLVDTLNSGQYTVFAPTNAAFSKLPASTIDELKTNSSLLTSILTYHVVAGQTSPANVVGTRQTLQGASVTVTGQGNSLKVGNADVVCGGVSTANATVYMIDSVLMPPA	soluble
GDSQDFSSSQSTSPVVHHRPIDQIALSTFEDTTPLKTDEVEQAWEHTQITYVDLRTGAHLGSGAERLARASLSLSKLYIADYVFDHGTQKEKEQAVEMIRKSDDDIADKLFDAYPNCIDSVAKKYQLEATQTYGRWG	not soluble
GDYERILYELEGMYQFGKRSHLDISAFSIASGVGYQLPLPMNPQFWLRYDFASGDKNHRDGRSNTFNQLFPFGHYYFGYIDQVGRQNIHDFNAQFTLHPQPWVTFLGQYHRFYLANKRDYLYNAAGAGTIRDITGQSGSHVGDEIDFTINFHLSRHQDVLLGYSKLFTGEFLKNTRPGVSPDLFYAQYNFRF	not soluble
GEEDLCAAFNVICDNVGKDWRRLARQLKVSDTKIDSIEDRYPRNLTERVRESLRIWKNTEKENATVAHLVGALRSCQMNLVADLVQEVQQARDLQNRSGAMSPMSWNSDASTSEASHHHHHH	soluble
GEITSAYFVCREATLQKLAAMQSIDSEQKLSALFEGSSQIISLFDRDSRFVWYNKAAYDKSIFLFGKFLCVGERFDSYLKEQYREGFNANFERVLKGEIVSYTREYTYQDKPFFLEIMLQPVYQKDELVGVSLIGNN	not soluble
